Columns and labels:
Format in all cases: cell-based
[1] = system: BxPC3 cells; experiment: In vitro inhibition of BxPC3 proliferation ([3H]thymidine incorporation); conditions: BxPC3, in absence of ligand, antibody alone
Experimental: For that purpose 50 000 BxPC3 cells were plated in 96 well plates in RPMI medium, 2 mM L. Glutamine, without SVF. […] After 3 days, cells were pulsed with 0.5 μCi of [^3H]thymidine for 16 hours. The magnitude of [^3H]thymidine incorporated into trichloroacetic acid-insoluble DNA was quantified by liquid scintillation counting. Results were expressed as raw data to really evaluate the intrinsic agonistic effect of each Mab (FIGS. 2A and 2B).

[2] = system: A549 cells; experiment: Matrigel invasion assay with A549 cells; conditions: A549, Mab 10 μg/ml, basal (no HGF)
Experimental: To evaluate the inhibiting effect of the anti-c-Met antibodies on the invasion process, A549 cells were plated in the upper chamber of BD BioCoat™ Matrigel™ invasion chambers (6.5 mm diameter wells with 8-μm pre size polycarbonate membranes). A459 cells were starved 24 hours before performing the invasion assay. Then 500 000 A549 cells were plated in chemotaxis buffer (DMEM medium, 0.1% BSA, 12 mM Hepes) in the upper well of each chamber, upon the Matrigel coating either with or without the antibody to be tested (final Mab concentration 10 μg/ml). After 1 hour incubation of the plates at 37° C. with 5% CO2, the lower chambers were filled with either growth medium containing 400 ng/ml of rhHGF or with growth medium alone. The chambers were incubated for 48 additional hours at 37° C. with 5% CO2. At the end of this incubation time, cells that remained on upper surface of the filter were gently removed with a cotton swab, cells that migrated to the lower surface of the filter were lysed, stained with CyQuant GR dye buffer (Invitrogen) and counted using a fluorescence reader Berthold Mithras LB940. All conditions were tested as triplicates.

[3] = system: SK-HEP-1 cells; experiment: Three-dimensional tubulogenesis assay; conditions: SK-HEP-1, antibody 10 μg/ml; for inhibitory effect on tube formation in presence of HGF: HGF 100 ng/ml; for agonist effect on tube formation, alone: no HGF
Experimental: SK-HEP-1 cells were seeded at 1·10^4 cells/well in a 24-well plate in DMEM with 10% FCS/Matrigel (50/50) and incubated for 30 min before addition, at the same time, of HGF (100 ng/ml) and antibodies to be tested (10 μg/ml). After 7 days incubation, cells were assessed for tube formation visually. Each tested condition was tested as a triplicate and 3 independent experiments were performed.

[4] = system: U-87MG, human glioblastoma cells; experiment: U87-MG spheroid growth; conditions: antibody 10 μg/ml
Experimental: To evaluate the ability of anti-c-Met antibodies to inhibit in vitro tumor growth, in a model closer to an in vivo situation, U-87MG, human glioblastoma cells (ATCC #HTB-14) spheroids were generated. Cells grown as a monolayer were detached with trypsine-EDTA and resuspended into complete cell culture media (DMEM) supplemented with 10% FBS. Spheroids were initiated by inoculating 625 cells into single wells of round bottom, 96 plates in DMEM-10% FCS. To prohibit cell adhesion to a substratum, the plates were pre-coated with polyHEMA in 95% ethanol and air dried at room temperature. The plates were incubated under standard cell culture conditions at 37° C., 5% CO2 in humidified incubators. Purified monoclonal antibodies (10 μg/ml) were added after 3 and 7 days of spheroid culture. HGF (400 ng/ml) was added once after 4 days of culture. Spheroids were kept in culture for at least 10 days. Then, spheroid growth was monitored by measuring the area of spheroids using automeasure module of axiovision software. Area was expressed in μm^2. 8-16 spheroids were evaluated for each condition.
As already described in Example 9 for other Mabs, we evaluate the ability of 224G11 Mab to inhibit in vitro tumor growth in the U87-MG spheroid model. For that purpose, U87-MG cells grown as a monolayer were detached with trypsine-EDTA and resuspended into complete cell culture media. Spheroids were initiated by inoculating 625 cells into single wells of round bottom, 96 plates in DMEM-2.5% FCS. To prohibit cell adhesion to a substratum, the plates were pre-coated with polyHEMA in 95% ethanol and air dried at room temperature. The plates were incubated under standard cell culture conditions at 37° C., 5% CO2 in humidified incubators. Purified monoclonal antibodies (10 μg/ml) were added after 4 and 10 days of spheroid culture. Spheroids were kept in culture for 17 days. Then, spheroid growth was monitored by measuring the area of spheroids using automeasure module of axiovision software. Area was expressed in μm^2. 8-16 spheroids were evaluated for each condition. Spheroid size was measured before addition of antibodies, after 10 days of culture and after 17 days of culture.

[5] = Example 9: DMEM-10% FCS, in presence and in absence of HGF 400 ng/ml
[6] = Example 23: DMEM-2.5% FCS, 10 or 17 days of culture

B1: 11E1: murine anti-c-Met monoclonal antibody, IgG1 kappa; heavy chain SEQ ID No. 62, light chain SEQ ID No. 63 (antibody, V domains shown)
VH: QVQLQQSGAELAKPGASVKMSCKASGYTFTSYWMNWVKQRPGQGLEWIGYINPTTGSTDYNQKLKDKATLTADKSSNTAYMQLSSLTSEDSAVYYCAIGGYGSWFAYWGQGTLVTVSA
VL: QIVLTQSPAIMSASPGEKVTLTCSASSSVSSTYLYWYQQKPGSSPKLWIYTTSILASGVPARFSGSGSGTSYSLTISSMETEDAASYFCHQWSSYPFTFGSGTKLDIK
modifications: mus musculus
agonist activity on cell proliferation [1]: without any agonist activity
agonist effect on invasion, added alone [2]: No agonist effect
inhibitory effect on tube formation in presence of HGF [3]: full inhibitory effect
agonist effect on tube formation, alone [3]: No agonistic effect
effect on spheroid growth [4, 5]: reduced significantly
effect on spheroid growth [4, 6]: markedly inhibited

B2: 223C4: murine anti-c-Met monoclonal antibody, IgG1 kappa; heavy chain SEQ ID No. 20, light chain SEQ ID No. 23 (antibody, V domains shown)
VH: EVLLQQSGPELVKPGASVKIPCKASGYTFTDYNMDWVKQSHGMSLEWIGDINPNNGGTIFNQKFKGKATLTVDKSSSTAYMELRSLTSEDTAVYYCARGRYVGYYYAMDYWGQGTSVTVSS
VL: DIQMTQSPASLSVSVGETVTITCRASENIYSNLAWYQQKQGKSPQLLVYAATNLVDGVPSRFSGSGSGTQYSLKINSLQSEDFGSYYCQHFWGPPYTFGGGTKLEIK
modifications: mus musculus
agonist activity on cell proliferation [1]: without any agonist activity
agonist effect on invasion, added alone [2]: No agonist effect
inhibitory effect on tube formation in presence of HGF [3]: full inhibitory effect
agonist effect on tube formation, alone [3]: No agonistic effect
effect on spheroid growth [4, 5]: reduced significantly

B3: 224G11: murine anti-c-Met monoclonal antibody, IgG1 kappa; heavy chain SEQ ID No. 18, light chain SEQ ID No. 21 (antibody, V domains shown)
VH: EVQLQQSGPELVKPGASVKISCKTSGYIFTAYTMHWVRQSLGESLDWIGGIKPNNGLANYNQKFKGKATLTVDKSSSTAYMDLRSLTSEDSAVYYCARSEITTEFDYWGQGTALTVSS
VL: DIVLTQSPASLAVSLGQRATISCRASESVDSYANSFMHWYQQKPGQPPKLLIYRASNLESGIPARFSGSGSRTDFTLTINPVEADDVATYYCQQSKEDPLTFGSGTKLEMK
modifications: mus musculus
agonist activity on cell proliferation [1]: without any agonist activity
agonist effect on invasion, added alone [2]: No agonist effect
inhibitory effect on tube formation in presence of HGF [3]: partial but significant inhibition
agonist effect on tube formation, alone [3]: No agonistic effect
effect on spheroid growth [4, 6]: markedly inhibited

Source: patent US8871909B2, “Antibodies inhibiting c-Met dimerization and uses thereof” (Pierre Fabre Medicament, priority 2007, dated 2014)
